Reference: the Immune Epitope Database (IEDB)
One block for each sequence: values may come before it.

Legend:
HLA-B*27:05 = experiment: IEDB peptide-MHC binding, cellular MHC/competitive/radioactivity; ≥ and ≤ were set here for values at or beyond the usual limits of such assays; conditions: source organism: Hepacivirus hominis
HLA-A*80:01 = experiment: IEDB peptide-MHC binding, purified MHC/direct/fluorescence; filed as Kd, often an IC50 or EC50 that approximates it; ≥ and ≤ were set here for values at or beyond the usual limits of such assays
HLA-A*01:01 [1] = experiment: IEDB peptide-MHC binding, purified MHC/competitive/fluorescence; filed as Kd, often an IC50 or EC50 that approximates it; ≥ and ≤ were set here for values at or beyond the usual limits of such assays; conditions: source organism: Rattus norvegicus
HLA-A*29:02 = experiment: as above; conditions: source organism: Rattus norvegicus
HLA-A*02:01 = experiment: IEDB peptide-MHC binding, purified MHC/competitive/radioactivity; ≥ and ≤ were set here for values at or beyond the usual limits of such assays; conditions: source organism: Trypanosoma cruzi
HLA-A*02:02 = experiment: IEDB peptide-MHC binding, purified MHC/competitive/radioactivity; filed as Kd, often an IC50 or EC50 that approximates it; ≥ and ≤ were set here for values at or beyond the usual limits of such assays; conditions: source organism: Trypanosoma cruzi
HLA-A*02:03 = experiment: as above; conditions: source organism: Trypanosoma cruzi
HLA-A*02:06 = experiment: as above; conditions: source organism: Trypanosoma cruzi
HLA-A*68:02 = experiment: as above; conditions: source organism: Trypanosoma cruzi
HLA-C*15:02 = experiment: IEDB peptide-MHC binding, purified MHC/direct/fluorescence; filed as Kd, often an IC50 or EC50 that approximates it; ≥ and ≤ were set here for values at or beyond the usual limits of such assays; conditions: source organism: Yersinia pestis Nepal516
HLA-A*03:19 = experiment: IEDB peptide-MHC binding, purified MHC/competitive/fluorescence; filed as Kd, often an IC50 or EC50 that approximates it; ≥ and ≤ were set here for values at or beyond the usual limits of such assays; conditions: source organism: Yersinia pestis Nepal516
HLA-A*24:02 = experiment: as above
HLA-A*32:07 = experiment: as above; conditions: source organism: Yersinia pestis Nepal516
HLA-A*32:15 = experiment: as above; conditions: source organism: Yersinia pestis Nepal516
HLA-A*68:23 = experiment: as above; conditions: source organism: Yersinia pestis Nepal516
HLA-B*15:42 = experiment: as above
HLA-B*45:06 = experiment: as above
HLA-C*04:01 [2] = experiment: as above; conditions: source organism: Yersinia pestis Nepal516
HLA-C*06:02 = experiment: as above; conditions: source organism: Yersinia pestis Nepal516
HLA-C*14:02 = experiment: as above; conditions: source organism: Yersinia pestis Nepal516
HLA-C*07:02 = experiment: IEDB peptide-MHC binding, purified MHC/direct/fluorescence; filed as Kd, often an IC50 or EC50 that approximates it; ≥ and ≤ were set here for values at or beyond the usual limits of such assays
HLA-B*07:02 = experiment: IEDB peptide-MHC binding, purified MHC/competitive/fluorescence; filed as Kd, often an IC50 or EC50 that approximates it; ≥ and ≤ were set here for values at or beyond the usual limits of such assays; conditions: source organism: Yersinia pestis Nepal516
HLA-B*15:01 = experiment: as above; conditions: source organism: Yersinia pestis Nepal516
HLA-B*15:02 = experiment: as above; conditions: source organism: Yersinia pestis Nepal516
HLA-B*35:01 = experiment: as above; conditions: source organism: Yersinia pestis Nepal516
HLA-B*46:01 = experiment: as above; conditions: source organism: Yersinia pestis Nepal516
HLA-B*08:01 = experiment: as above; conditions: source organism: Yersinia pestis Nepal516
HLA-B*51:01 = experiment: as above; conditions: source organism: Yersinia pestis Nepal516
HLA-B*48:01 = experiment: as above; conditions: source organism: Escherichia coli B171
HLA-B*27:20 = experiment: as above
HLA-B*83:01 = experiment: as above
HLA-B*73:01 = experiment: as above; conditions: source organism: Salmonella enterica subsp. enterica serovar Typhimurium str. LT2
HLA-A*01:01 [3] = experiment: IEDB peptide-MHC binding, purified MHC/direct/fluorescence; filed as Kd, often an IC50 or EC50 that approximates it; ≥ and ≤ were set here for values at or beyond the usual limits of such assays; conditions: source organism: Mammarenavirus lassaense
HLA-C*03:03 = experiment: as above; conditions: source organism: Yersinia pestis Nepal516
HLA-C*12:03 = experiment: as above; conditions: source organism: Yersinia pestis Nepal516
HLA-B*39:01 = experiment: IEDB peptide-MHC binding, purified MHC/competitive/fluorescence; filed as Kd, often an IC50 or EC50 that approximates it; ≥ and ≤ were set here for values at or beyond the usual limits of such assays; conditions: source organism: Yersinia pestis Nepal516
HLA-C*04:01 [4] = experiment: IEDB peptide-MHC binding, purified MHC/direct/fluorescence; filed as Kd, often an IC50 or EC50 that approximates it; ≥ and ≤ were set here for values at or beyond the usual limits of such assays; conditions: source organism: Entamoeba dispar SAW760
[5] = source organism: Yersinia pestis Nepal516
[6] = source organism: Human herpesvirus 4 strain B95-8
[7] = source organism: Entamoeba dispar SAW760

Sequence: ARMILMTHF
IC50 (HLA-B*27:05): 1.1 nM

Sequence: FFGETSHNY
Kd (HLA-A*80:01; source organism: Mus musculus): ≥ 20000 nM | Kd (HLA-A*01:01 [1]): ≥ 20000 nM | Kd (HLA-A*29:02): ≤ 0.1 nM

Sequence: FLSHNFTLV
IC50 (HLA-A*02:01): 0.61 nM | Kd (HLA-A*02:02): 0.047 nM | Kd (HLA-A*02:03): 0.0232 nM | Kd (HLA-A*02:06): 0.445 nM | Kd (HLA-A*68:02): 27.1 nM

Sequence: FYFNWNTPI
Kd (HLA-C*15:02): 1060 nM | Kd (HLA-A*03:19): 1420 nM | Kd (HLA-A*24:02; [5]): ≤ 0.1 nM | Kd (HLA-A*32:07): 0.2 nM | Kd (HLA-A*32:15): 7.2 nM | Kd (HLA-A*68:23): 23.5 nM | Kd (HLA-B*15:42; [5]): ≥ 5000 nM | Kd (HLA-B*45:06; [5]): ≥ 5000 nM | Kd (HLA-C*04:01 [2]): 300 nM | Kd (HLA-C*06:02): 33.9 nM | Kd (HLA-C*14:02): ≤ 0.1 nM

Sequence: HLIQNPNPF
Kd (HLA-C*07:02; [5]): 626 nM | Kd (HLA-B*07:02): 6500 nM | Kd (HLA-B*15:01): 30.8 nM | Kd (HLA-B*15:02): 17.3 nM | Kd (HLA-B*35:01): 27.3 nM | Kd (HLA-B*46:01): 8050 nM

Sequence: LPFLKSLAI
Kd (HLA-B*07:02): 12.6 nM | Kd (HLA-B*08:01): 105 nM | Kd (HLA-B*15:01): ≥ 20000 nM | Kd (HLA-B*35:01): 46.1 nM | Kd (HLA-B*51:01): 841 nM

Kd (HLA-B*48:01): 192 nM
Sequence: RQNLSSSEL

Sequence: RRAALSGHL
Kd (HLA-B*15:42; [6]): ≥ 5000 nM | Kd (HLA-B*27:20; [6]): 0.2 nM | Kd (HLA-B*45:06; [6]): ≥ 5000 nM | Kd (HLA-B*83:01; [6]): ≥ 5000 nM

Sequence: WRLYSPPPV
Kd (HLA-B*73:01): 118 nM

Sequence: YENAVWDQY
Kd (HLA-A*01:01 [3]): 537 nM | Kd (HLA-A*80:01; source organism: Mammarenavirus lassaense): 463 nM

Sequence: YRYCHQLAL
Kd (HLA-C*03:03): 164 nM | Kd (HLA-C*07:02; [5]): 39 nM | Kd (HLA-C*12:03): 206 nM | Kd (HLA-C*15:02): ≥ 20000 nM | Kd (HLA-B*15:42; [5]): ≥ 5000 nM | Kd (HLA-B*27:20; [5]): 0.2 nM | Kd (HLA-B*39:01): 1.2 nM | Kd (HLA-B*45:06; [5]): ≥ 5000 nM | Kd (HLA-B*83:01; [5]): ≥ 5000 nM | Kd (HLA-C*06:02): 1.8 nM

Sequence: YYSNKVFPI
Kd (HLA-C*04:01 [4]): ≥ 20000 nM | Kd (HLA-C*07:02; [7]): 245 nM | Kd (HLA-A*24:02; [7]): ≤ 0.1 nM
